Key:
[1] = biological target: HLA-C*12:03; test: IEDB peptide-MHC binding, purified MHC/direct/fluorescence; filed as Kd, often an IC50 or EC50 that approximates it; ≥ and ≤ were set here for values at or beyond the usual limits of such assays
[2] = biological target: HLA-A*01:01; test: as above
[3] = biological target: HLA-B*51:01; test: IEDB peptide-MHC binding, purified MHC/competitive/fluorescence; filed as Kd, often an IC50 or EC50 that approximates it; ≥ and ≤ were set here for values at or beyond the usual limits of such assays
[4] = biological target: HLA-B*27:03; test: as above
[5] = biological target: HLA-B*39:01; test: as above; conditions: source organism: Tetraodon nigroviridis
[6] = biological target: HLA-B*46:01; test: as above
[7] = biological target: HLA-A*24:02; test: IEDB peptide-MHC binding, purified MHC/competitive/fluorescence; ≥ and ≤ were set here for values at or beyond the usual limits of such assays; conditions: source organism: Zaire ebolavirus
[8] = biological target: HLA-B*07:02; test: as above
[9] = biological target: HLA-A*02:01; test: as above; conditions: source organism: Zaire ebolavirus
[10] = biological target: HLA-A*03:01; test: as above
[11] = biological target: HLA-A*11:01; test: as above
[12] = biological target: HLA-B*58:01; test: IEDB peptide-MHC binding, purified MHC/direct/fluorescence; filed as Kd, often an IC50 or EC50 that approximates it; ≥ and ≤ were set here for values at or beyond the usual limits of such assays
[13] = biological target: HLA-B*57:01; test: as above
[14] = biological target: HLA-B*15:17; test: as above
[15] = biological target: HLA-A*03:01; test: as above
[16] = biological target: HLA-A*02:03; test: as above; conditions: source organism: Convict Creek 107 virus
[17] = biological target: HLA-A*02:19; test: as above; conditions: source organism: Convict Creek 107 virus
[18] = biological target: HLA-A*24:03; test: as above; conditions: source organism: Convict Creek 107 virus
[19] = biological target: HLA-B*40:01; test: as above; conditions: source organism: Orthohantavirus negraense
[20] = biological target: HLA-A*02:16; test: as above; conditions: source organism: Convict Creek 107 virus
[21] = biological target: HLA-A*02:11; test: as above; conditions: source organism: Convict Creek 107 virus
[22] = biological target: HLA-A*02:12; test: as above; conditions: source organism: Convict Creek 107 virus
[23] = biological target: HLA-A*29:02; test: as above; conditions: source organism: Convict Creek 107 virus
[24] = biological target: HLA-A*26:01; test: IEDB peptide-MHC binding, purified MHC/competitive/fluorescence; filed as Kd, often an IC50 or EC50 that approximates it; ≥ and ≤ were set here for values at or beyond the usual limits of such assays
[25] = biological target: HLA-B*15:01; test: as above
[26] = biological target: HLA-B*57:01; test: as above
[27] = biological target: HLA-B*15:17; test: as above; conditions: source organism: Orthohantavirus sinnombreense
[28] = biological target: HLA-A*02:01; test: as above
[29] = biological target: HLA-A*03:01; test: as above; conditions: source organism: Cryptosporidium parvum Iowa II
[30] = biological target: HLA-A*02:03; test: as above; conditions: source organism: Cryptosporidium parvum Iowa II
[31] = biological target: HLA-B*18:01; test: as above; conditions: source organism: Cryptosporidium parvum Iowa II
[32] = biological target: HLA-A*02:11; test: as above; conditions: source organism: Cryptosporidium parvum Iowa II
[33] = biological target: HLA-B*15:01; test: IEDB peptide-MHC binding, purified MHC/competitive/fluorescence; ≥ and ≤ were set here for values at or beyond the usual limits of such assays; conditions: source organism: Zaire ebolavirus
[34] = biological target: HLA-B*07:02; test: IEDB peptide-MHC binding, purified MHC/direct/fluorescence; filed as Kd, often an IC50 or EC50 that approximates it; ≥ and ≤ were set here for values at or beyond the usual limits of such assays; conditions: source organism: Mammarenavirus lassaense
[35] = biological target: HLA-B*15:01; test: as above; conditions: source organism: Mammarenavirus lassaense
[36] = biological target: HLA-B*48:01; test: as above; conditions: source organism: Mammarenavirus lassaense
[37] = biological target: HLA-B*44:02; test: as above; conditions: source organism: Mammarenavirus lassaense
[38] = biological target: HLA-B*39:01; test: as above; conditions: source organism: Mammarenavirus lassaense
[39] = biological target: HLA-B*46:01; test: as above; conditions: source organism: Mammarenavirus lassaense
[40] = biological target: HLA-A*02:01; test: as above; conditions: source organism: Mammarenavirus lassaense
[41] = biological target: HLA-A*11:01; test: as above; conditions: source organism: Mammarenavirus lassaense
[42] = biological target: HLA-B*27:05; test: as above; conditions: source organism: Mammarenavirus lassaense
[43] = biological target: HLA-A*31:01; test: as above; conditions: source organism: Mammarenavirus lassaense
[44] = biological target: HLA-B*45:06; test: IEDB peptide-MHC binding, purified MHC/competitive/fluorescence; filed as Kd, often an IC50 or EC50 that approximates it; ≥ and ≤ were set here for values at or beyond the usual limits of such assays; conditions: source organism: Yellow fever virus
[45] = biological target: HLA-B*83:01; test: as above; conditions: source organism: Yellow fever virus
[46] = biological target: HLA-B*15:42; test: as above; conditions: source organism: Yellow fever virus
[47] = source organism: Tetraodon nigroviridis
[48] = source organism: Zaire ebolavirus
[49] = source organism: Vaccinia virus WR
[50] = source organism: Cryptosporidium parvum Iowa II
[51] = source organism: Cryptosporidium parvum
[52] = source organism: Orthohantavirus sinnombreense
[53] = source organism: Vaccinia virus Copenhagen
[54] = source organism: Mycobacterium tuberculosis
[55] = source organism: Mammarenavirus lassaense

Sequence: NTFKFGVIY
- Kd [1, 47]: ≤ 0.001 µM
- Kd ([2]; source organism: Danio rerio): 0.52 µM
- Kd [3, 47]: ≥ 20 µM
- Kd [4, 47]: ≥ 20 µM
- Kd [5]: ≥ 20 µM
- Kd [6, 47]: ≥ 20 µM

Sequence: LFPQLSAIA
- IC50 [7]: 13.9 µM
- IC50 [8, 48]: ≥ 142 µM
- IC50 [9]: 32.7 µM

Sequence: HHAYQGDYK
- IC50 [10, 48]: 46 µM
- IC50 [11, 48]: ≥ 70.5 µM

Sequence: KVSGTGPCA
- IC50 [8, 48]: ≥ 96.8 µM
- IC50 [9]: ≥ 118 µM

Sequence: AVIRANNNR
- IC50 [10, 49]: 5.9 µM
- IC50 [11, 49]: 2.16 µM

Sequence: KPPKFRAFR
- IC50 ([8]; source organism: Vaccinia virus): ≥ 169 µM

Sequence: GHGFRFEVK
- IC50 [10, 48]: 6.42 µM
- IC50 [11, 48]: 3.17 µM

Sequence: IKRTLAAMP
- IC50 [8, 48]: ≥ 151 µM

Sequence: KSFGRISVL
- Kd [1, 50]: ≤ 0.001 µM
- Kd [12, 51]: 0.0176 µM
- Kd [13, 50]: 0.316 µM
- Kd [14, 51]: 0.0008 µM

Sequence: TEFFMSRKL
- Kd ([15]; source organism: Convict Creek 107 virus): ≥ 20 µM
- Kd [16]: ≥ 20 µM
- Kd [17]: ≥ 20 µM
- Kd [18]: ≥ 20 µM
- Kd [19]: 0.0014 µM
- Kd [20]: ≥ 20 µM
- Kd [21]: ≥ 20 µM
- Kd [22]: ≥ 20 µM
- Kd [23]: ≥ 20 µM
- Kd [24, 52]: ≥ 20 µM
- Kd [3, 52]: ≥ 20 µM
- Kd [4, 52]: ≥ 20 µM
- Kd [25, 52]: ≥ 20 µM
- Kd [26, 52]: ≥ 20 µM
- Kd [27]: ≥ 20 µM
- Kd [6, 52]: ≥ 20 µM
- Kd [28, 52]: ≥ 20 µM

Sequence: ERTDLFFPV
- Kd [29]: ≥ 20 µM
- Kd [30]: ≥ 20 µM
- Kd [24, 50]: ≥ 20 µM
- Kd [3, 50]: ≥ 20 µM
- Kd [25, 50]: ≥ 20 µM
- Kd [31]: ≥ 20 µM
- Kd [26, 50]: ≥ 20 µM
- Kd [6, 50]: ≥ 20 µM
- Kd [28, 50]: ≥ 20 µM
- Kd [32]: 2.82 µM

Sequence: QSVGHMMVI
- IC50 [7]: 3.77 µM
- IC50 [8, 48]: 34.5 µM
- IC50 [33]: ≥ 143 µM
- IC50 [9]: 4.89 µM

Sequence: TKITFALKK
- IC50 [10, 53]: 39.6 µM
- IC50 [11, 53]: 11.1 µM

Sequence: FLSDYGPQL
- Kd ([1]; source organism: Mycobacterium tuberculosis variant bovis BCG str. Pasteur 1173P2): 0.233 µM

Sequence: RAYWIHLMM
- Kd ([1]; source organism: Mycobacterium tuberculosis C): 0.002 µM
- Kd [12, 54]: 0.0957 µM
- Kd ([13]; source organism: Mycobacterium tuberculosis str. Haarlem): 0.165 µM
- Kd [14, 54]: 0.0022 µM

Sequence: IEEVMNIVL
- Kd [15, 55]: ≥ 20 µM
- Kd [12, 55]: ≥ 20 µM
- Kd [34]: ≥ 20 µM
- Kd [35]: ≥ 20 µM
- Kd [13, 55]: ≥ 20 µM
- Kd [36]: ≥ 20 µM
- Kd [37]: ≥ 20 µM
- Kd [38]: 0.946 µM
- Kd [39]: ≥ 20 µM
- Kd [40]: ≥ 20 µM
- Kd [41]: ≥ 20 µM
- Kd [42]: ≥ 20 µM
- Kd [43]: ≥ 20 µM
- Kd [2, 55]: ≥ 20 µM

Sequence: MVIFFMSPK
- Kd [44]: ≥ 5 µM
- Kd [45]: ≥ 5 µM
- Kd [46]: ≥ 5 µM

Sequence: IVKTVLDHI
- IC50 [7]: 6.71 µM
- IC50 [8, 48]: ≥ 170 µM
- IC50 [9]: ≥ 91.6 µM

Sequence: KGYVVSRRG
- IC50 [10, 49]: ≥ 102 µM

Reference: the Immune Epitope Database (IEDB)
